Measured values taken from patent US20220098305A1.

Target: human CEA (hu N(A2-B2)A-avi-His B) (human)
Assay: SPR (Biacore T200), hu N(A2-B2)A-avi-His B immobilised, Fab as analyte, 1:1 Langmuir fit

Chain of human CEA (hu N(A2-B2)A-avi-His B) (human) (P06731 whole entry): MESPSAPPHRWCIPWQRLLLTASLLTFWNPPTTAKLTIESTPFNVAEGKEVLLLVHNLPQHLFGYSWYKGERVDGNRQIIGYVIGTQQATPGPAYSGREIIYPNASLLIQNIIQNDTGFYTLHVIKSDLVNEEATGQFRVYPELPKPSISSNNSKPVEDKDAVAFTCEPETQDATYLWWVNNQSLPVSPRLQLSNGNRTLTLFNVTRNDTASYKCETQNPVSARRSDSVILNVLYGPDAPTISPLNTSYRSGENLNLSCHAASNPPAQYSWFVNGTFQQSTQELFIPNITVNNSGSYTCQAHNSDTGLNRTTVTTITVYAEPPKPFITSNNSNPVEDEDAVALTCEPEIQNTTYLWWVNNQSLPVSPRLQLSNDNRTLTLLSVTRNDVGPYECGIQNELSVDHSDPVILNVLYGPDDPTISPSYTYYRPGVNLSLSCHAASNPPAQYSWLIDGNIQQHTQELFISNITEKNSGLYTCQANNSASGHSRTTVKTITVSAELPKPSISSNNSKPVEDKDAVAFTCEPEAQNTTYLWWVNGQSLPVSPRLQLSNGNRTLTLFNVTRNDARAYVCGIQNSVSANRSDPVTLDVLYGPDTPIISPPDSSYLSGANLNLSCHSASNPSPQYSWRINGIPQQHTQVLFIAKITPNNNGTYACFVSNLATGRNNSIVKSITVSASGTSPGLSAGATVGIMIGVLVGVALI

Binder	Kd
P1AE4135, Fab derived from P1AE2164 (Fab, V domains shown) VH: EVQLLESGGGLVQPGGSLRLSCAASGFTFTDYYMNWVRQAPGKGLEWLGFIGNKANGYTTEYSASVKGRFTISRDKSKNTLYLQMNSLRAEDTATYYCTRDRGLRFYFDYWGQGTTVTVSS VL: QTVLTQSPATLSLSPGERATLSCRASSSVTYIHWYQQKPGSSPKSWIYATSNLASGIPARFSGSGSGTDYTLTISSLEPEDFAVYYCQHWSSKPPTFGQGTKLEIK	1.7 nM
P1AE4141, Fab derived from P1AE2179 (Fab, V domains shown) VH: EVQLLESGGGLVQPGGSLRLSCAASGFTFTDYYMNWVRQAPGKGLEWVGFIGNKANGYTTEYSASVKGRFTISRDKSKNTLYLQMNSLRAEDTAVYYCARDRGLRFYFDYWGQGTTVTVSS VL: QTVLTQSPATLSLSPGERATLSCRASSSVTYIHWYQQKPGSSPKSWIYATSNLASGIPARFSGSGSGTDYTLTISSLEPEDFAVYYCQHWSSKPPTFGQGTKLEIK	1.83 nM
P1AE4137, Fab derived from P1AE2166 (Fab, V domains shown) VH: EVQLLESGGGLVQPGGSLRLSCAASGFTFTDYYMNWVRQAPGKGLEWLGFIGNKANGYTTEYSASVKGRFTISRDKSKNTLYLQMNSLRAEDTATYYCTRDRGLRFYFDYWGQGTTVTVSS VL: EIVLTQSPATLSLSPGERATLSCRASSSVTYIHWYQQKPGSSPKSWIYATSNLASGIPARFSGSGSGTDFTLTISSLEPEDFAVYYCQHWSSKPPTFGQGTKLEIK	11.3 nM
P1AE4143, Fab derived from P1AE2182 (Fab, V domains shown) VH: EVQLLESGGGLVQPGGSLRLSCAASGFTFTDYYMNWVRQAPGKGLEWVGFIGNKANGYTTEYSASVKGRFTISRDKSKNTLYLQMNSLRAEDTAVYYCARDRGLRFYFDYWGQGTTVTVSS VL: EIVLTQSPATLSLSPGERATLSCRASSSVTYIHWYQQKPGQAPRSWIYATSNLASGIPARFSGSGSGTDFTLTISSLEPEDFAVYYCQHWSSKPPTFGQGTKLEIK	2.92 nM
P1AE4139, Fab derived from P1AE2176 (Fab, V domains shown) VH: EVQLLESGGGLVQPGGSLRLSCAASGFTFTDYYMNWVRQAPGKGLEWVGFIGNKANGYTTEYSASVKGRFTISRDNSKNTLYLQMNSLRAEDTAVYYCTRDRGLRFYFDYWGQGTTVTVSS VL: EIVLTQSPATLSLSPGERATLSCRASSSVTYIHWYQQKPGSSPKSWIYATSNLASGIPARFSGSGSGTDFTLTISSLEPEDFAVYYCQHWSSKPPTFGQGTKLEIK	7.58 nM
P1AE4142, Fab derived from P1AE2181 (Fab, V domains shown) VH: EVQLLESGGGLVQPGGSLRLSCAASGFTFTDYYMNWVRQAPGKGLEWVGFIGNKANGYTTEYSASVKGRFTISRDKSKNTLYLQMNSLRAEDTAVYYCARDRGLRFYFDYWGQGTTVTVSS VL: EIVLTQSPATLSLSPGERATLSCRASSSVTYIHWYQQKPGSSPKSWIYATSNLASGIPARFSGSGSGTDFTLTISSLEPEDFAVYYCQHWSSKPPTFGQGTKLEIK	2.64 nM
P1AE4140, Fab derived from P1AE2177 (Fab, V domains shown) VH: EVQLLESGGGLVQPGGSLRLSCAASGFTFTDYYMNWVRQAPGKGLEWVGFIGNKANGYTTEYSASVKGRFTISRDNSKNTLYLQMNSLRAEDTAVYYCTRDRGLRFYFDYWGQGTTVTVSS VL: EIVLTQSPATLSLSPGERATLSCRASSSVTYIHWYQQKPGQAPRSWIYATSNLASGIPARFSGSGSGTDFTLTISSLEPEDFAVYYCQHWSSKPPTFGQGTKLEIK	7.62 nM

Binders with a lower Kd, results first:

Kd	Binder
0.559 nM	P1AE0289, CEA (A5B7) Fab (parental murine antibody) (Fab, V domains shown) VH: EVKLVESGGGLVQPGGSLRLSCATSGFTFTDYYMNWVRQPPGKALEWLGFIGNKANGYTTEYSASVKGRFTISRDKSQSILYLQMNTLRAEDSATYYCTRDRGLRFYFDYWGQGTTLTVSS VL: QTVLSQSPAILSASPGEKVTMTCRASSSVTYIHWYQQKPGSSPKSWIYATSNLASGVPARFSGSGSGTSYSLTISRVEAEDAATYYCQHWSSKPPTFGGGTKLEIK
1.47 nM	P1AE4138, Fab derived from P1AE2167 (Fab, V domains shown) VH: EVQLLESGGGLVQPGGSLRLSCAASGFTFTDYYMNWVRQAPGKGLEWLGFIGNKANGYTTEYSASVKGRFTISRDKSKNTLYLQMNSLRAEDTATYYCTRDRGLRFYFDYWGQGTTVTVSS VL: EIVLTQSPATLSLSPGERATLSCRASSSVTYIHWYQQKPGQAPRSWIYATSNLASGIPARFSGSGSGTDFTLTISSLEPEDFAVYYCQHWSSKPPTFGQGTKLEIK
1.25 nM	P1AE4136, Fab derived from P1AE2165 (Fab, V domains shown) VH: EVQLLESGGGLVQPGGSLRLSCAASGFTFTDYYMNWVRQAPGKGLEWLGFIGNKANGYTTEYSASVKGRFTISRDKSKNTLYLQMNSLRAEDTATYYCTRDRGLRFYFDYWGQGTTVTVSS VL: QTVLTQSPATLSLSPGERATLSCRASSSVTYIHWYQQKPGQAPRLLIYATSNLASGIPARFSGSGSGTDFTLTISSLEPEDFAVYYCQHWSSKPPTFGQGTKLEIK
